Our source for the Kd values is paper PMC5779224 (2017).

The target in the test is T1, AnkB_MBD R1 charge reversal mutant ('EAAE') (human, UniProt Q01484-2 28-827, 37RAAR40 to 37EAAE40).
T1 sequence: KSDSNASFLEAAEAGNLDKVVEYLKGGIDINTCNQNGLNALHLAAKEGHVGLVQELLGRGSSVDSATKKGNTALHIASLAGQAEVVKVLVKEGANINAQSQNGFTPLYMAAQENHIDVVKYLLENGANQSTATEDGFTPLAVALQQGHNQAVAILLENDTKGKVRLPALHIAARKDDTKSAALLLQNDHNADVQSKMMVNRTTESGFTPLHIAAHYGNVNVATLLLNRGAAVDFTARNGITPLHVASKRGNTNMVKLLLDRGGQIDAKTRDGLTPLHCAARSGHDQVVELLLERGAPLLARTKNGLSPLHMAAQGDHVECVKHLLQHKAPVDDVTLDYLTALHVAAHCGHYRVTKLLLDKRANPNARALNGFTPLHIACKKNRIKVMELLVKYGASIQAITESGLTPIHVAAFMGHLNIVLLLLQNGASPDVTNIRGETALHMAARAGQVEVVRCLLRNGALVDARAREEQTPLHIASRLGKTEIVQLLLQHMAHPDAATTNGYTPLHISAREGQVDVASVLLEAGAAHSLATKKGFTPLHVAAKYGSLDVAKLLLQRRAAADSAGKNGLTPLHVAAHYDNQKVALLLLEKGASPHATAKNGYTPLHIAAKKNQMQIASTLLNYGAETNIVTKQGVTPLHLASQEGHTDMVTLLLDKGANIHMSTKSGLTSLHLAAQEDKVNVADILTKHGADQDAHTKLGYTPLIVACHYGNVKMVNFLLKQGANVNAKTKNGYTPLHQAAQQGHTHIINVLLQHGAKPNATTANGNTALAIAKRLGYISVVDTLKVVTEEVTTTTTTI
Put plainly: FP.

B1: AnkB_AI-a peptide (aa 1623–1635) (peptide)
peptide: HPPIVSEEDISVG
Take B1: the Kd was 43.8 µM.

In general, Kd refers to the free concentration of one partner at which half of the binding sites on the other are occupied at equilibrium, for simple one-to-one binding.
